# ± gives the standard error. Fewer inactive variants are shown than the library holds.
# B1: glmS ribozyme (parent)
# chain: AUAAAAGCGCCAGAACUACAGAAAUGUAGUUGACGAGGAGGAGGUUUAUCGAAUUUUCGGCGGAUGCCUCCAAA
# Variants of: B1
# Assay: self-cleavage kobs at 2500 uM GlcN6P; higher = faster cleavage; RNA array
# Details: with glucosamine-6-phosphate
# In short: (§1)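 A hybridised Cy3 probe tracked barcoded ribozyme variants, transcribed in situ by E. coli RNA polymerase on sequenced MiSeq chips, at 37 °C. The variants received 40 μM to 10 mM glucosamine-6-phosphate in HEPES/KCl/Mg(OAc)2 buffer. kobs came from decay fits and kcat and KM from weighted Michaelis–Menten fits.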
row,Variant,self-cleavage kobs at 2500 uM GlcN6P [s⁻¹]
1,AUAAAUGCGCCAGAACUACAGAAAUGUAGUUGACCAGGAGGAGGUUUAUCGAAUUAUCGUCGGGUGCCUCCAAA,< 1e-05
2,AUAAAUGCGCCAGAACUACAGAAAUGUAGUUGACUAGGAGGAGGUUUAUCGAAUUUUCUGCGGAUGCCUCCAAA,< 1e-05
3,AUAAAACCGCCUGAACUACAGAAAUGUAGUUGACGAGGGGGAGGUUUAUCGAUUUUUCGGCGGAUGCCUCCAAA,< 1e-05
4,AUAAAAACGCCGGAACUACAGAAAUGUAGUUGACAAGGAGGAGGUUUAUCGAAUUUUCGGCGGAUGCCUCCAAA,< 1e-05
5,AUAAAGGCGCCAGAACUACAGAAAUGUAGUUGACGAGGAGUAGGUGUAUCGAAUUUUCGCCGGAUGCCUCCAAA,< 1e-05
6,AUAAAGGCGCCAGCACUACAGAAAUGUAGUUGACGAGGAGGAGGUUUAUCGAGUUUUCGGCGGAUGCCUCCAAA,6.89e-05 ± 1.6e-05
7,AUAAAGGCGCCAGAAAUACAGAAAUGUAGUUGAAGUGGAGGAUGUUUAUCGAAUUUUCGGCGGAUGCCUCCAAA,< 1e-05
8,AUAAACCCGUCAGAACUACAGAAAUGUACUUGACGAGGAGGAGGUUUAUCGAAUUUUGGGCGGAUGCCUCCAAA,< 1e-05
9,AUAAAAGCGCCAGAACUACAGAAAUGUAGUUGACGAGGAGGAGGUUUAUCGGAUGUUCGGCGUAUGCCUCCAAA,0.000758 ± 0.0003
10,AUAAAGGCGCCAGAACUACAGAAAUGUAGUUGACGAGGAGGAUAUUUUUCGAAUUUUCGGCGAAUGCCUCCAAA,< 1e-05
11,AUAAAAACGCCAGAACUACAGAAAUGUAGUUUACGAGGAGGAGGUUUAUCGAAUUUUUGGCGGAUGUCUCCAAA,< 1e-05
12,AUAAAAGCGCCAGAACUACAGAAAUGUAGUUGACGAGGAGGAGGUUUAUCGAAUUUUCGGCCGUUUCCUCCAAA,< 1e-05
13,AUAAAAACGCCAGAACUACAGAAAUGUAGUUGACGAGGAGGAGGUUUAUCGAAUUUUCGGCGGCUGGCGCCAAA,< 1e-05
14,AUAAAGGCGCCAGAACUACAGAAAUGUAGCUGACGAGGAGGAGUUUUAUCGCAUUUUCGGCGUAUGCCUCCAAA,< 1e-05
15,AUAAAGCCGCCAGAACUACAGAAAUGUAGUUGACGUGGUGGAGGUUUAUCGAAUUUUCGGCGGAUGCCUCCAAA,< 1e-05
16,AUAAAAACGCCAGAACUACAGAAAUGUAGUUGACGAGGAGGAGGUUUGUCGAAUUUUCGGCGGAUGCCUUCAAA,< 1e-05
17,AUAAAAACGCCAGAACUACAGAAAUGUAGGUAACGAGGGGGAGGUUUAUCGAAUUUUCGGCGGAUGCCUCCAAA,< 1e-05
18,AUAAACGCGCCAGAACUACAGAAAUGUAGUCGACGAGGAGCGGGGUUAUCGAAUUUUCCGCGGAUUCCUCCAAA,< 1e-05
19,AUAAAAGCGCCAGAACUACAGAAAUGUAGUUGACGAGGAGGAGGUUUAUCGGAUUUUAGGCGCAUGCGUCCAAA,0.000102 ± 2.9e-05
20,AUAAAAGCGCCAGAACUACAGAAAUGUAGUUGACGAGGAGGAGGUUUAUCGAAUUUUCGGCUGAUGCCGCCAAA,0.000214 ± 8.3e-05
21,AUAAAAGCGCCAGAACUACAGAAAUGUAGUUGACGAGGAGGAGGUUUAUCGAAAUUUCGGGGGAUGCCUCGAAA,0.000139 ± 4.6e-05
22,AUAAAGGCGCCAGAACUACAGAAAUGUAGUUGACGAGGUGGAGGUUUACCGAAUUUUCGGCGGAUGCCUCCAAA,< 1e-05
23,AUAAAAACGCCAGAACUACAGAAAUGUAGUCGACGAGGGGGAGGUUUAUCGUAUUUUCGGCGGAUGCCUCCAAA,< 1e-05
24,AUAAAAGCGCCAGAACUACAGAAAUGUAGUUGACGAGGAGGAGGUUUAUCGAAUUUUCGGCGAAUUUCUCCAAA,< 1e-05
25,AUAAAUGCGCCAGAACUACAGAAAUGUAGUUGUCGAGGAGGAGGUUUAUCGAAUUUUCGGCGGAUGCGUCCAAA,< 1e-05
26,AUAAAAACACCAGAACUACAGAAAUGUAGUUGACGAGAAGGAGGUUUAUCGAAUUUUCGGCGGAGGCCUCCAAA,< 1e-05

row,Variant,self-cleavage kobs at 2500 uM GlcN6P [s⁻¹]
1,AUAAACGCGCCUGAACUACAGAAAUGUAGUUGACGAGGAGGAGGUUUAACGAGAUUUCGGCGGAUGCCUCCAAA,< 1e-05
2,AUAAAGGCGCCAGAACUACAGAAAUGUAGUUGAGGAGGAAGAGGUUUAUCGAAUUUUCGGCGGAUGGCUUCAAA,< 1e-05
3,AUAAAUGCGCCAGAACUACAGAAAUGUAUUUGACGGGGAGGAGAUUUAUCGAAUCUUCGGCGGAUGCCUCCAAA,< 1e-05
4,AUAAAGGCGUCAGAACUACAGAAAUGUAGUAGACGAGGAGGAGGUUUAUCGAAUUUUCGUCGGAUGUCUCCAAA,< 1e-05
5,AUAAAGGCGCCAGAACUACAGAAAUGUAGUUGAUGAGGACGAGGUUUAUCGAAUUUUCGGCGGAUGCCUCCAAA,< 1e-05
6,AUAAACGCGCCAGAACUACAGAAAUGUAAUUGACGAUGAGGAGGUUUAUCGAAUUUUCGGCGGAUGCCUCCAAA,< 1e-05
7,AUAAAUGCGCUAGAACUACAGAAAUGUAGUUGACGAGGAGGAGGUUUAUCGAAUUUGGGGAGGAUGCUUUCAAA,0.000618 ± 0.00019
8,AUAAAUGCGGCAGAACUACAGAAAUGUAGUUGACGAGGUGGAGGUUUAUCGAAUUUUCGGCGGAUGCCUCUAAA,< 1e-05
9,AUAAAAACGCCAGAACUACAGAAAUGUAGUCGACCAGGAGGCGGUGUAUCGAAGUUUCGGCGGAUGCCUCCAAA,< 1e-05
10,AUAAAUGCGCCAGAAGUACAGAAAUGUAGUUGACGAGGAGGAGGUUUAUCGAAUUUUCGGCGGAUGCCUCGAAA,0.000356 ± 0.00014
11,AUAAAGGCGCCAGAACUACAGAAAUGUAAUUGACGAGGAGGAGGUUUAUCGAAUUUUCGACGGAUGCCUCCAAA,< 1e-05
12,AUAAAGGCGCCAGCACUACAGAAAUGUAGUUGACGAGGACGAGGUUUAUCGAUUUUUCGCCGGAUGCCUCCAAA,< 1e-05
13,AUAAAAACGCCAGAACUACAGAAAUGUAGUUGACGAGUAGUAGGUUUAUCGAAUUUUCGGCGGAUGCCUCCAAA,< 1e-05
14,AUAAAAACGCCCGAUCUACAGAAAUGUAGUUGACGAGGAGUAGGUUUAUCGAAUUUUCGGCGGAUGCCUCCAAA,< 1e-05
15,AUAAAAGCGCCAGAACUACAGAAAUGUAGUUGACGAGGAGGAGGUUUAUCGAAUUUUCGUCGGAUGCCUCAAAA,< 1e-05
16,AUAAAUGCGCCUGAACUACAGAAAUGUAGUUGACGAGGAGGAGGUUUAUCGAAUAUUCGGCGGAUGCCUCCAAA,0.000377 ± 9.2e-05
17,AUAAACGCGCCAUAACUACAGAAAUGUAGUUGUCGAGGAGGAGGUUUAUCGCAUUUUCGGCGCAUGCCUCCAAA,< 1e-05
18,AUAAAAGCGCCAGAACUACAGAAAUGUAGUUGACGAGGAGGAGGUUUAUCGCAUUUCCGGCGGAUGCGUGCAAA,0.000133 ± 5.6e-05
19,AUAAAAGCGCCAGAACUACAGAAAUGUAGUUGACGAGGAGGAGGUUUAUCGGAUAUUCGGCGGAUGCCUCAAAA,0.000169 ± 7.2e-05
20,AUAAAUGCGCCAAAACUACAGAAAUGUAGUUGACGAGGAGGAGGUUUACCGAAUUUUCGGCGGAUGCCUCCAAA,< 1e-05
21,AUAAACGCGCCAGAACUACAGAAAUGUAGUUAACGAGGAGGAGGUUUAUCGAAUUUUCCGCGGAUGCCUCCAAA,< 1e-05
22,AUAAAGGCGCCCGAACUACAGAAAUGUAGUUGACGACGAGGAGGAUUAUCGAAUUUUCGGCGGAUGCCUUCAAA,< 1e-05
23,AUAAAUGCGCCAGAACUACAGAAAUGUAGUUGACGAGGAGGAGGUUUAUCGGAUUUUCGGCGGAUGGCUCCAAA,0.000425 ± 0.00018
24,AUAAAAACGCAUGAACUACAGAAAUGUAGUUAACGAGGAGGAGGUUUAUCGAAUUUUCGAGGGAUGCCUCCAAA,< 1e-05
25,AUAAAGGCGCCAGAACUACAGAAAUGUAGUUGACGAGCAGUAGGUUUAUCGAAUUUUCGGCGGAUGCUUCCAAA,< 1e-05
26,AUAAAUGCGCCAGAACUACAGAAAUGUAGUUGACGUCGAGGAGGUUUUUCGAAUUUUCGGCGGAUGCCUCCAAA,< 1e-05

# Variants of: B1
# Assay: self-cleavage kobs at 640 uM GlcN6P; higher = faster cleavage; RNA array
# Details: with glucosamine-6-phosphate
# In short: as §1
row,Variant,self-cleavage kobs at 640 uM GlcN6P [s⁻¹]
1,AUAAAAGCGCCAGAACUACAGAAAUGUAGUUGACGAGGAGGAGGUUUAUCGAAUUUUGGGCGGCUGUCUCCAAA,7.21e-05 ± 2e-05
2,AUAAAAGCGCCAGAACUACAGAAAUGUAGUUGACGAGGAGGAGGUUUAUCGAAUUUUCCGCGGAUCCCUCCAAA,< 1e-05
3,AUAAAAGCGCCAGAACUACAGAAAUGUAGUUGACGAGGAGGAGGUUUAUCGGAUGUUCGGCGUAUGCCUCCAAA,< 1e-05
4,AUAAAAGCGCCAGAACUACAGAAAUGUAGUUGACGAGGAGGAGGUUUAUCGAAUUUUGGGCGGAUGCAUCCAAA,0.000125 ± 3e-05
5,AUAAAAGCGCCAGAACUACAGAAAUGUAGUUGACGAGGAGGAGGUUUAUCGAAUUUUUGGCGGAUGUUUCUAAA,0.000646 ± 0.00029
6,AUAAAAGCGCCAGAACUACAGAAAUGUAGUUGACGAGGAGGAGGUUUAUCGAAUUUUCGGCCGUUUCCUCCAAA,< 1e-05
7,AUAAAAGCGCCAGAACUACAGAAAUGUAGUUGACGAGGAGGAGGUUUAUCGGAUUUUAGGCGCAUGCGUCCAAA,0.00011 ± 4.4e-05
8,AUAAAAGCGCCAGAACUACAGAAAUGUAGUUGACGAGGAGGAGGUUUAUCGAAUUUUCGGCUGAUGCCGCCAAA,3.47e-05 ± 1.3e-05
9,AUAAAAGCGCCAGAACUACAGAAAUGUAGUUGACGAGGAGGAGGUUUAUCGAAAUUUCGGGGGAUGCCUCGAAA,7.31e-05 ± 1.7e-05
10,AUAAAAGCGCCAGAACUACAGAAAUGUAGUUGACGAGGAGGAGGUUUAUCGAAUUUUCGGCGAAUUUCUCCAAA,< 1e-05
11,AUAAAAGCGCCAGAACUACAGAAAUGUAGUUGACGAGGAGGAGGUUUAUCGAAUUUUCGUCGGAUGCCUCAAAA,< 1e-05
12,AUAAAAGCGCCAGAACUACAGAAAUGUAGUUGACGAGGAGGAGGUUUAUCGCAUUUCCGGCGGAUGCGUGCAAA,0.000165 ± 5.4e-05
13,AUAAAAGCGCCAGAACUACAGAAAUGUAGUUGACGAGGAGGAGGUUUAUCGGAUAUUCGGCGGAUGCCUCAAAA,7.88e-05 ± 2.3e-05
14,AUAAAAGCGCCAGAACUACAGAAAUGUAGUUGACGAGGAGGAGGUUUAUCGAAUUUUGGGCGGGAUGCCCCAAA,9.79e-05 ± 2.9e-05
15,AUAAAAGCGCCAGAACUACAGAAAUGUAGUUGACGAGGAGGAGGUUUAUCGAAUGAUCGGCGGAUGCCUCGAAA,8.05e-05 ± 1.8e-05
16,AUAAAAGCGCCAGAACUACAGAAAUGUAGUUGACGAGGAGGAGGUUUAUCGAAAUUUCGGCAGAUCCCUCCAAA,< 1e-05
17,AUAAAAGCGCCAGAACUACAGAAAUGUAGUUGACGAGGAGGAGGUUUAUCGAAUUUUCGGCGGCCGCCUCCAAA,< 1e-05

# Variants of: B1
# Assay: self-cleavage kobs at 10000 uM GlcN6P; higher = faster cleavage; RNA array
# Details: with glucosamine-6-phosphate
# In short: as §1
row,Variant,self-cleavage kobs at 10000 uM GlcN6P [s⁻¹]
1,AUAAAAGCGCCAGAACUACAGAAAUGUAGUUGACGAGGAGGAGGUUUAUCGAAUUUUCCGCGGAUCCCUCCAAA,< 1e-05
2,AUAAACGCGCCAGAACUACAGAAAUGUAGUCGACGAGGAGCGGGGUUAUCGAAUUUUCCGCGGAUUCCUCCAAA,< 1e-05
3,AUAAAAACACCAGAACUACAGAAAUGUAGUUGACGAGAAGGAGGUUUAUCGAAUUUUCGGCGGAGGCCUCCAAA,< 1e-05
4,AUAAAAGCGCCAGAACUACAGAAAUGUAGUUGACGAGGAGGAGGUUUAUCGAAUUUUCGUCGGAUGCCUCAAAA,< 1e-05
5,AUAAAAGCGCCAGAACUACAGAAAUGUAGUUGACGAGGAGGAGGUUUAUCGAAUUUUCGGCGGCCGCCUCCAAA,< 1e-05

# — the supplement of paper PMC7125110
